The values that follow come from paper PMC6250708, “Arabidopsis thaliana DGAT3 is a [2Fe-2S] protein involved in TAG biosynthesis” (Scientific Reports, 2018).

The series deals with the molecule itself. Nature of the series: SEC; Superdex 200 10/300 GL, 4 °C, 100 mM triethanolamine pH 7.5, 300 mM NaCl, 5% glycerol, 1% n-octyl-β-D-glucopyranoside, 1 mM TCEP; column calibrated with Bio-Rad gel filtration standard; oligomer size assumes a globular protein. For orientation: SEC sorts molecules by how far they enter the pores of the column.

B1: Δ46AtDGAT3 (Arabidopsis thaliana acyl-CoA:diacylglycerol acyltransferase 3 lacking the putative chloroplast transit peptide) (domain or fragment, UniProt Q9C5W0 47-360, looked up)
chain: CNNEFADKGHVNYYIEPTRCGEEKEKVKVMEKEKKALKKKAKVLKSLSKNLDMFSSIGFGLDPEAGLVGEIQTKTISEATEILVKQLEQLKAEEKILKKQRKEEKAKAKAMKKMTEMDSESSSSSESSDSDCDKGKVVDMSSLRNKAKPVLEPLQPEATVATLPRIQEDAISCKNTSEALQIALQTSTIFPSMANPGQTLKTVEAVSVVGLPLNRVEVCMGGKCKRSGGALLLDEFQRAMTGFEGSAVACKCMGKCRDGPNVRVVKETDAVMTDSVRTPSKTLCVGVGLQDVETIVTSFFDEECSREGLGSVSY
notes: AtDGAT3 (At1g48300), Arabidopsis thaliana, 360-residue protein of the revised TAIR annotation (GenBank AEE32272); the 46 N-terminal residues (putative chloroplast transit peptide predicted by ChloroP 1.1) removed; calculated mass of the His-tagged protein 35.4 kDa; Cloned NdeI/XhoI into pET-32b(+), in frame with a C-terminal 6xHis tag; the NdeI site of the forward primer supplies a start …
Turning to B1, the stoichiometry N (as a rule, the number of molecules, sites or subunits per partner or assembly) came to 3.
